Test [1] concerns the target T1, human Y2 receptor (human, UniProt P49146 1-381).
T1 construct: whole, on cells; used as membrane fraction of CHO/dhfr- cells stably expressing hY2R; also called hY2R; human NPY2R
T1 sequence (looked up): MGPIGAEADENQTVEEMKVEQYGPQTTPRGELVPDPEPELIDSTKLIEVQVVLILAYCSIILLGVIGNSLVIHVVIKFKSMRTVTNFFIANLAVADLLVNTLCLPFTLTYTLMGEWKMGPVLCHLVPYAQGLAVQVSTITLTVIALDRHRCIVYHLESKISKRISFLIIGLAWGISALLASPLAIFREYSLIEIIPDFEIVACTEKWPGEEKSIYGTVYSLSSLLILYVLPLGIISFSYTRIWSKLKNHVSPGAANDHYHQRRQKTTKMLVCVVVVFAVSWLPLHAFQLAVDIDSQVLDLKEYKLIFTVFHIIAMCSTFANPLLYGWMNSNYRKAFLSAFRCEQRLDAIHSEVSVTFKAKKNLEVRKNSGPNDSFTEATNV
Description: RBA: displacement of [125I]-PYY from hY2R/CHO membranes. The protocol:
After incubation at room temperature for 60 minutes, the mixture was filtered through the cell harvester FilterMate (PerkinElmer) using UniFilter-96 GF/C treated with polyethylenimine (PEI) solution (20 mM Tris, 0.3% PEI, pH 7.4), and the filter was washed 3 times with a filtering buffer (50 mM Tris, 5 mM MgCl₂, 150 mM NaCl, 0.03% NaN₃, 0.05% CHAPS, pH 7.4). Thereafter, UniFilter-96 GF/C was dried in a mechanical drier for 1 hour, 15 μl of the liquid scintillator MicroScint O (PerkinElmer) was added to each well, and a measurement was taken using TopCount (PerkinElmer). The data obtained were analyzed using Prism to calculate the IC₅₀ value.
(In general: In a radioligand displacement assay an active substance lowers the binding of a labelled ligand.)

Test [2] has as its target T1, human Y2 receptor. Description: cell-based or functional assay.

7 molecules from US20120172293A1 (Takeda / Millennium, published 2012) can be followed below.

Non-standard residues stand in square brackets, D forms with d. *: point of attachment. X11 = ((1S)-1-carboxy-3-methylbutyl)carbamoyl, CC(C)C[C@H](NC(=O)*)C(=O)O; X10 = Tetrahydro‑2H‑pyran‑4‑yl‑carbamoyl, O=C(NC1CCOCC1)*; Phe(2-Me) = Cc1ccccc1C[C@H](N)C(=O)O; tBuAla = CC(C)(C)C[C@H](N)C(=O)O; Cha = N[C@@H](CC1CCCCC1)C(=O)O; Aib = CC(C)(N)C(=O)O

B1: Ac-[D-Pro24, Trp26, Cha27,36, Aib28,31, Lys30]-PYY(23-36) (peptide)
peptide: Ac-S[dP]RW[Cha][Aib]NK[Aib]TRQR[Cha]-NH2
SMILES: CC(=O)N[C@@H](CO)C(=O)N1CCC[C@@H]1C(=O)N[C@@H](CCCNC(=N)N)C(=O)N[C@@H](Cc1c[nH]c2ccccc12)C(=O)N[C@@H](CC1CCCCC1)C(=O)NC(C)(C)C(=O)N[C@@H](CC(N)=O)C(=O)N[C@@H](CCCCN)C(=O)NC(C)(C)C(=O)N[C@H](C(=O)N[C@@H](CCCNC(=N)N)C(=O)N[C@@H](CCC(N)=O)C(=O)N[C@@H](CCCNC(=N)N)C(=O)N[C@@H](CC1CCCCC1)C(N)=O)[C@@H](C)O
notes: also called compound No. 347
For B1, the “IC50 Ratio” value with human Y2 receptor [1] was 0.76 IC50 compound/IC50 PYY(3-36). The “GBA EC50 Ratio ([35S]GTPγS binding)” value with human Y2 receptor [2] is 1.3 EC50 compound/EC50 PYY(3-36).

B2: Ac-[Glu23, D-Pro24, Cha27,28, Lys30, Aib31, Phe(2Me)36]-PYY(23-36) (peptide)
peptide: Ac-E[dP]RH[Cha][Cha]NK[Aib]TRQR[Phe(2-Me)]-NH2
SMILES: CC(=O)N[C@@H](CCC(=O)O)C(=O)N1CCC[C@@H]1C(=O)N[C@@H](CCCNC(=N)N)C(=O)N[C@@H](Cc1c[nH]cn1)C(=O)N[C@@H](CC1CCCCC1)C(=O)N[C@@H](CC1CCCCC1)C(=O)N[C@@H](CC(N)=O)C(=O)N[C@@H](CCCCN)C(=O)NC(C)(C)C(=O)N[C@H](C(=O)N[C@@H](CCCNC(=N)N)C(=O)N[C@@H](CCC(N)=O)C(=O)N[C@@H](CCCNC(=N)N)C(=O)N[C@@H](Cc1ccccc1C)C(N)=O)[C@@H](C)O
notes: also called compound No. 256
With B2, the “IC50 Ratio” value with human Y2 receptor [1] is 1.7 IC50 compound/IC50 PYY(3-36). The “GBA EC50 Ratio ([35S]GTPγS binding)” value in the test with human Y2 receptor [2] is 1.2 EC50 compound/EC50 PYY(3-36).

B3: Tetrahydro-2H-pyran-4-yl-carbamoyl-[Glu23, D-Pro24, Cha27,28,36, Lys30, Aib31]-PYY(23-36) (peptide)
peptide: X10-E[dP]RH[Cha][Cha]NK[Aib]TRQR[Cha]-NH2
SMILES: C[C@@H](O)[C@H](NC(=O)C(C)(C)NC(=O)[C@H](CCCCN)NC(=O)[C@H](CC(N)=O)NC(=O)[C@H](CC1CCCCC1)NC(=O)[C@H](CC1CCCCC1)NC(=O)[C@H](Cc1c[nH]cn1)NC(=O)[C@H](CCCNC(=N)N)NC(=O)[C@H]1CCCN1C(=O)[C@H](CCC(=O)O)NC(=O)NC1CCOCC1)C(=O)N[C@@H](CCCNC(=N)N)C(=O)N[C@@H](CCC(N)=O)C(=O)N[C@@H](CCCNC(=N)N)C(=O)N[C@@H](CC1CCCCC1)C(N)=O
notes: also called compound No. 230
Take B3: in the test with human Y2 receptor [1], the “IC50 Ratio” value is 0.89 IC50 compound/IC50 PYY(3-36). In the test with human Y2 receptor [2], the “GBA EC50 Ratio ([35S]GTPγS binding)” value was 2.5 EC50 compound/EC50 PYY(3-36).

B4: Ac-[D-Pro24, Tyr26, Cha27,36, Aib28,31, Lys30]-PYY(23-36) (peptide)
peptide: Ac-S[dP]RY[Cha][Aib]NK[Aib]TRQR[Cha]-NH2
SMILES: CC(=O)N[C@@H](CO)C(=O)N1CCC[C@@H]1C(=O)N[C@@H](CCCNC(=N)N)C(=O)N[C@@H](Cc1ccc(O)cc1)C(=O)N[C@@H](CC1CCCCC1)C(=O)NC(C)(C)C(=O)N[C@@H](CC(N)=O)C(=O)N[C@@H](CCCCN)C(=O)NC(C)(C)C(=O)N[C@H](C(=O)N[C@@H](CCCNC(=N)N)C(=O)N[C@@H](CCC(N)=O)C(=O)N[C@@H](CCCNC(=N)N)C(=O)N[C@@H](CC1CCCCC1)C(N)=O)[C@@H](C)O
notes: also called compound No. 346
Regarding B4, the “IC50 Ratio” value with human Y2 receptor [1] was 1 IC50 compound/IC50 PYY(3-36). Also, the “GBA EC50 Ratio ([35S]GTPγS binding)” value with human Y2 receptor [2] was 1.3 EC50 compound/EC50 PYY(3-36).

B5: [(1S)-5-Amino-1-carboxypentyl]carbamoyl-[D-Pro24, Cha27,28,36, Aib31]-PYY(23-36) (peptide)
peptide: {((1S)-5-amino-1-carboxypentyl)carbamoyl}-S[dP]RH[Cha][Cha]NL[Aib]TRQR[Cha]-NH2
notes: calculated mass 1980.2 fits the name; also called compound No. 323
For the molecule B5, in the test with human Y2 receptor [1], the “IC50 Ratio” value was 1.3 IC50 compound/IC50 PYY(3-36). Moreover, the “GBA EC50 Ratio ([35S]GTPγS binding)” value in the test with human Y2 receptor [2] is 0.95 EC50 compound/EC50 PYY(3-36).

B6: [(1S)-1-carboxy-3-methylbutyl]carbamoyl-[D-Pro24, Cha27,36, Leu(Me)28, Lys30, Aib31]-PYY(23-36) (peptide)
peptide: X11-S[dP]RH[Cha][tBuAla]NK[Aib]TRQR[Cha]-NH2
SMILES: CC(C)C[C@H](NC(=O)N[C@@H](CO)C(=O)N1CCC[C@@H]1C(=O)N[C@@H](CCCNC(=N)N)C(=O)N[C@@H](Cc1c[nH]cn1)C(=O)N[C@@H](CC1CCCCC1)C(=O)N[C@@H](CC(C)(C)C)C(=O)N[C@@H](CC(N)=O)C(=O)N[C@@H](CCCCN)C(=O)NC(C)(C)C(=O)N[C@H](C(=O)N[C@@H](CCCNC(=N)N)C(=O)N[C@@H](CCC(N)=O)C(=O)N[C@@H](CCCNC(=N)N)C(=O)N[C@@H](CC1CCCCC1)C(N)=O)[C@@H](C)O)C(=O)O
notes: also called compound No. 253
Turning to B6, the “IC50 Ratio” value with human Y2 receptor [1] was 1.1 IC50 compound/IC50 PYY(3-36). Also, in the test with human Y2 receptor [2], the “GBA EC50 Ratio ([35S]GTPγS binding)” value was 0.85 EC50 compound/EC50 PYY(3-36).

B7: Ac-[D-Pro24, Cha27, Leu(Me)28, Lys30, Aib31, Phe(2Me)36]-PYY(23-36) (peptide)
peptide: Ac-S[dP]RH[Cha][tBuAla]NK[Aib]TRQR[Phe(2-Me)]-NH2
SMILES: CC(=O)N[C@@H](CO)C(=O)N1CCC[C@@H]1C(=O)N[C@@H](CCCNC(=N)N)C(=O)N[C@@H](Cc1c[nH]cn1)C(=O)N[C@@H](CC1CCCCC1)C(=O)N[C@@H](CC(C)(C)C)C(=O)N[C@@H](CC(N)=O)C(=O)N[C@@H](CCCCN)C(=O)NC(C)(C)C(=O)N[C@H](C(=O)N[C@@H](CCCNC(=N)N)C(=O)N[C@@H](CCC(N)=O)C(=O)N[C@@H](CCCNC(=N)N)C(=O)N[C@@H](Cc1ccccc1C)C(N)=O)[C@@H](C)O
notes: also called compound No. 255
For the molecule B7, the “IC50 Ratio” value with human Y2 receptor [1] is 0.8 IC50 compound/IC50 PYY(3-36). In the test with human Y2 receptor [2], the “GBA EC50 Ratio ([35S]GTPγS binding)” value is 0.86 EC50 compound/EC50 PYY(3-36).
